Results: patent publication US20240317834A1, “COMPOSITIONS AND METHODS FOR NEUROLOGICAL DISEASES” (CODA BIOTHERAPEUTICS, INC., priority 2020, published 2024)

System: Lenti-X 293T cells
Test: YFP fluorescence quenching anion reporter plate reader assay of engineered receptors stimulated with acetylcholine or a non-native ligand
Assay type: cell-based
Conditions: for percent quench of YFP fluorescence, 30 nM TC-6683: TC-6683 30 nM; for percent quench of YFP fluorescence, 300 nM TC-6683: TC-6683 300 nM; for percent quench of YFP fluorescence, 3 uM TC-6683: TC-6683 3 uM; for percent quench of YFP fluorescence, 30 uM TC-6683: TC-6683 30 uM; for percent quench of YFP fluorescence, 100 uM TC-6683: TC-6683 100 uM; for percent quench of YFP fluorescence, 10 uM ach: acetylcholine 10 uM; for percent quench of YFP fluorescence, 100 uM ach: acetylcholine 100 uM; for percent quench of YFP fluorescence, 1 mM ach: acetylcholine 1 mM; for percent quench of YFP fluorescence, 3 mM ach: acetylcholine 3 mM
Procedure, shortened: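 Lenti-X 293T cells carrying a YFP anion reporter were transiently transfected with channel DNA and assayed the next day in HEPES-buffered ECS at pH 7.2. Ligand (acetylcholine or non-native ligand) was added in NaI-substituted ECS. Percent quench was the mean of the last 10 s relative to the 15 s pre-addition baseline.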

B1: CODA339: engineered chimeric LGIC receptor, L131D in SEQ ID NO: 33 (protein)
chain: MRCSPGGVWLALAASLLHVSLQGEFQRKLYKELVKNYNPLERPVANDSQPLTVYFSLSLLQIMDVDEKNQVLTTNIWLQMSWTDHYLQWNVSEYPGVKTVRFPDGQIWKPDILLYNSADERFDATFHTNVDVNSSGHCQYLPPGIFKSSCPMDLKNFPMDVQTCKLKFGSWSYGGWSLDLQMQEADISGYIPNGEWDLVGIPGKRSERFYECCKEPYPDVTFTVTMRRRMGYYLIQMYIPSLLIVILSWISFWINMDAAPARVGLGITTVLTMTTQSSGSRASLPKVSYVKAIDIWMAVCLLFVFSALLEYAAVNFVSRQHKELLRFRRKRRHHKSPMLNLFQEDEAGEGRFNFSAYGMGPACLQAKDGISVKGANNSNTTNPPPAPSKSPEEMRKLFIQRAKKIDKISRIGFPMAFLIFNMFYWIIYKIVRREDVHNQ
modifications: synthetic sequence of chimeric LGIC
B1 was tested, and the “YFP fluorescence quenching using CNL001” value (1 nM CNL001, first column) was 73.711%, the “YFP fluorescence quenching using CNL001” value (1 nM CNL001, second column) was 76.44% and the “YFP fluorescence quenching using TC-5619/Bradanicline” value (1 nM brd) was 4.12%. For the same molecule, the “YFP fluorescence quenching using TC-5619/Bradanicline” value (3 nM brd) was 19.15%, the “YFP fluorescence quenching using Varenicline” value (3 nM var, first column) was −0.902 and the “YFP fluorescence quenching using Varenicline” value (3 nM var, second column) was −7.62. For the same molecule, the “YFP fluorescence quenching using CNL001” value (10 nM CNL001, first column) was 77.049%, the “YFP fluorescence quenching using CNL001” value (10 nM CNL001, second column) was 77.76% and the “YFP fluorescence quenching using TC-5619/Bradanicline” value (10 nM brd) was 68.98%. For the same molecule, the “YFP fluorescence quenching using TC-5619/Bradanicline” value (30 nM brd) was 77.29%, the “YFP fluorescence quenching using Facinicline” value (30 nM fac) was 12.67 and the “YFP fluorescence quenching using Varenicline” value (30 nM var, first column) was −6.009. For the same molecule, the “YFP fluorescence quenching using Varenicline” value (30 nM var, second column) was −3.447, the “YFP fluorescence quenching using CNL001” value (50 nM CNL001, first column) was 77.882% and the “YFP fluorescence quenching using CNL001” value (50 nM CNL001, second column) was 78.708%. The “YFP fluorescence quenching using ABT-126” value (50 nM abt) was −16.65%, the “YFP fluorescence quenching using CNL001” value (100 nM CNL001, first column) was 79.567% and the “YFP fluorescence quenching using CNL001” value (100 nM CNL001, second column) was 79.273%. For the same molecule, the “YFP fluorescence quenching using CNL002” value (100 nM CNL002) was 12.83%, the “YFP fluorescence quenching using ABT-126” value (100 nM abt) was −12.3% and the “YFP fluorescence quenching using AZD-0328” value (100 nM azd0328) was 62.87%. The “YFP fluorescence quenching using TC-5619/Bradanicline” value (100 nM brd) was 81.41%, the “YFP fluorescence quenching using ABT-126” value (300 nM abt) was 18.5% and the “YFP fluorescence quenching using AZD-0328” value (300 nM azd0328) was 77.03%. The “YFP fluorescence quenching using TC-5619/Bradanicline” value (300 nM brd) was 75.79%, the “YFP fluorescence quenching using Facinicline” value (300 nM fac) was 80.4 and the “YFP fluorescence quenching using Varenicline” value (300 nM var, first column) was 49.328. For the same molecule, the “YFP fluorescence quenching using Varenicline” value (300 nM var, second column) was 47.685, the “YFP fluorescence quenching using Varenicline” value (500 nM var, first column) was 66.7 and the “YFP fluorescence quenching using Varenicline” value (500 nM var, second column) was 64.798. The “YFP fluorescence quenching using CNL001” value (1 uM CNL001, first column) was 79.992%, the “YFP fluorescence quenching using CNL001” value (1 uM CNL001, second column) was 79.927% and the “YFP fluorescence quenching using CNL002” value (1 uM CNL002) was 77.73%. The “YFP fluorescence quenching using ABT-126” value (1 uM abt) was 59.09%, the “YFP fluorescence quenching using TC-5619/Bradanicline” value (1 uM brd) was 82.26% and the “YFP fluorescence quenching using TC-6987” value (1 uM tc6987) was 50. For the same molecule, the “YFP fluorescence quenching using Varenicline” value (1 uM var, first column) was 70.85, the “YFP fluorescence quenching using Varenicline” value (1 uM var, second column) was 69.038 and the “YFP fluorescence quenching using TC-6987” value (3 uM tc6987) was 80.39. For the same molecule, the “YFP fluorescence quenching using TC-6987” value (5 uM tc6987) was 79.93, the “YFP fluorescence quenching using Facinicline” value (10 uM fac) was 82.18 and the “YFP fluorescence quenching using TC-6987” value (10 uM tc6987) was 80.99. For the same molecule, the “YFP fluorescence quenching using CNL002” value (30 uM CNL002) was 80.58%, the “YFP fluorescence quenching using AZD-0328” value (30 uM azd0328) was 78.63% and the “YFP fluorescence quenching using Facinicline” value (30 uM fac) was 82.14. For the same molecule, the “YFP fluorescence quenching using TC-6987” value (30 uM tc6987) was 83.11, the “YFP fluorescence quenching using TC-6987” value (50 uM tc6987) was 83.18 and the “YFP fluorescence quenching using TC-6987” value (100 uM tc6987) was 82.16. The “YFP fluorescence quenching using TC-6987” value (300 uM tc6987) was 64.58, the “YFP fluorescence quenching using TC-6987” value (500 uM tc6987) was 76.77 and the “percent quench of YFP fluorescence, 30 nM TC-6683” value was −18.32%. The “percent quench of YFP fluorescence, 300 nM TC-6683” value was −17.25%, the “percent quench of YFP fluorescence, 3 uM TC-6683” value was −10% and the “percent quench of YFP fluorescence, 30 uM TC-6683” value was −8.51%. The “percent quench of YFP fluorescence, 100 uM TC-6683” value was −9.77%, the “percent quench of YFP fluorescence, 10 uM ach” value was 4.56% and the “percent quench of YFP fluorescence, 100 uM ach” value was 10.19%. For the same molecule, the “percent quench of YFP fluorescence, 1 mM ach” value was 77.34% and the “percent quench of YFP fluorescence, 3 mM ach” value was 77.79%.

B2: CODA340: engineered chimeric LGIC receptor, L131E in SEQ ID NO: 33 (protein)
chain: MRCSPGGVWLALAASLLHVSLQGEFQRKLYKELVKNYNPLERPVANDSQPLTVYFSLSLLQIMDVDEKNQVLTTNIWLQMSWTDHYLQWNVSEYPGVKTVRFPDGQIWKPDILLYNSADERFDATFHTNVEVNSSGHCQYLPPGIFKSSCPMDLKNFPMDVQTCKLKFGSWSYGGWSLDLQMQEADISGYIPNGEWDLVGIPGKRSERFYECCKEPYPDVTFTVTMRRRMGYYLIQMYIPSLLIVILSWISFWINMDAAPARVGLGITTVLTMTTQSSGSRASLPKVSYVKAIDIWMAVCLLFVFSALLEYAAVNFVSRQHKELLRFRRKRRHHKSPMLNLFQEDEAGEGRFNFSAYGMGPACLQAKDGISVKGANNSNTTNPPPAPSKSPEEMRKLFIQRAKKIDKISRIGFPMAFLIFNMFYWIIYKIVRREDVHNQ
modifications: synthetic sequence of chimeric LGIC
For B2, the “YFP fluorescence quenching using CNL001” value (1 nM CNL001, first column) was 76.413%, the “YFP fluorescence quenching using CNL001” value (1 nM CNL001, second column) was 77.144% and the “YFP fluorescence quenching using TC-5619/Bradanicline” value (3 nM brd) was 68.57%. The “YFP fluorescence quenching using Varenicline” value (3 nM var, first column) was −4.061, the “YFP fluorescence quenching using Varenicline” value (3 nM var, second column) was −0.568 and the “YFP fluorescence quenching using CNL001” value (10 nM CNL001, first column) was 78.258%. The “YFP fluorescence quenching using CNL001” value (10 nM CNL001, second column) was 78.763%, the “YFP fluorescence quenching using TC-5619/Bradanicline” value (30 nM brd) was 76.85% and the “YFP fluorescence quenching using Facinicline” value (30 nM fac) was 82.51. The “YFP fluorescence quenching using Varenicline” value (30 nM var, first column) was 62.964, the “YFP fluorescence quenching using Varenicline” value (30 nM var, second column) was 63.631 and the “YFP fluorescence quenching using CNL001” value (50 nM CNL001, first column) was 79.757%. The “YFP fluorescence quenching using CNL001” value (50 nM CNL001, second column) was 79.327%, the “YFP fluorescence quenching using ABT-126” value (50 nM abt) was 2.2% and the “YFP fluorescence quenching using CNL001” value (100 nM CNL001, first column) was 79.011%. For the same molecule, the “YFP fluorescence quenching using CNL001” value (100 nM CNL001, second column) was 79.948%, the “YFP fluorescence quenching using CNL002” value (100 nM CNL002) was 49.97% and the “YFP fluorescence quenching using ABT-126” value (100 nM abt) was 25.39%. The “YFP fluorescence quenching using AZD-0328” value (100 nM azd0328) was 82.48%, the “YFP fluorescence quenching using Facinicline” value (100 nM fac) was 83.6 and the “YFP fluorescence quenching using ABT-126” value (300 nM abt) was 36.48%. For the same molecule, the “YFP fluorescence quenching using AZD-0328” value (300 nM azd0328) was 82.04%, the “YFP fluorescence quenching using TC-5619/Bradanicline” value (300 nM brd) was 78.49% and the “YFP fluorescence quenching using Facinicline” value (300 nM fac) was 82.92. The “YFP fluorescence quenching using Varenicline” value (300 nM var, first column) was 74.912, the “YFP fluorescence quenching using Varenicline” value (300 nM var, second column) was 75.084 and the “YFP fluorescence quenching using Varenicline” value (500 nM var, first column) was 76.346. For the same molecule, the “YFP fluorescence quenching using Varenicline” value (500 nM var, second column) was 75.876, the “YFP fluorescence quenching using CNL001” value (1 uM CNL001, first column) was 79.855% and the “YFP fluorescence quenching using CNL001” value (1 uM CNL001, second column) was 80.618%. For the same molecule, the “YFP fluorescence quenching using CNL002” value (1 uM CNL002) was 67.8%, the “YFP fluorescence quenching using ABT-126” value (1 uM abt) was 50.76% and the “YFP fluorescence quenching using TC-6987” value (1 uM tc6987) was 80.13. The “YFP fluorescence quenching using Varenicline” value (1 uM var, first column) was 75.805, the “YFP fluorescence quenching using Varenicline” value (1 uM var, second column) was 74.856 and the “YFP fluorescence quenching using TC-6987” value (10 uM tc6987) was 81.29. The “YFP fluorescence quenching using CNL002” value (30 uM CNL002) was 64.58%, the “YFP fluorescence quenching using AZD-0328” value (30 uM azd0328) was 81.8% and the “YFP fluorescence quenching using Facinicline” value (30 uM fac) was 82.68. For the same molecule, the “YFP fluorescence quenching using TC-6987” value (500 uM tc6987) was 79.6, the “percent quench of YFP fluorescence, 30 nM TC-6683” value was 30.14% and the “percent quench of YFP fluorescence, 300 nM TC-6683” value was 33.02%. The “percent quench of YFP fluorescence, 3 uM TC-6683” value was 41.68%, the “percent quench of YFP fluorescence, 30 uM TC-6683” value was 35.75% and the “percent quench of YFP fluorescence, 100 uM TC-6683” value was 24.32%. The “percent quench of YFP fluorescence, 10 uM ach” value was 15.29%, the “percent quench of YFP fluorescence, 30 uM ach” value (acetylcholine 30 uM) was 66.56% and the “percent quench of YFP fluorescence, 100 uM ach” value was 81.31%. For the same molecule, the “percent quench of YFP fluorescence, 1 mM ach” value was 80.77% and the “percent quench of YFP fluorescence, 3 mM ach” value was 77.31%.
